From paper PMC2717645

Molecular target: taxol-stabilized microtubules (bovine brain tubulin) (bovine) (UniProt Q6B856)
Experiment: co-sedimentation

B1: recombinant LC1 (natural protein)
chain: MAKATTIKDAIRIFEERKSVVATEAEKVELHGMIPPIEKMDATLSTLKACKHLALSTNNIEKISSLSGMENLRILSLGRNLIKKIENLDAVADTLEELWISYNQIASLSGIEKLVNLRVLYMSNNKITNWGEIDKLAALDKLEDLLLAGNPLYNDYKENNATSEYRIEVVKRLPNLKKLDGMPVDVDEREQANVARGG
- stoichiometry N (LC1 per tubulin monomer): 1.06
